Each block holds one substance with its values, some of them ahead of it.
Columns and labels:
[1] = biological target: human IL-33 (R&D Systems, #3625-IL-010/CF) (human) (UniProt O95760); assay: BLI; hIL-33 pre-mixed with mAb-2 H4H9676P
[2] = biological target: human IL-33 (R&D Systems, #3625-IL-010/CF) (human) (UniProt O95760); assay: BLI; hIL-33 pre-mixed with mAb-2 H4H9667P
[3] = biological target: human IL-33 (R&D Systems, #3625-IL-010/CF) (human) (UniProt O95760); assay: BLI; hIL-33 pre-mixed with mAb-2 H4H9670P
[4] = biological target: cynomolgus monkey IL-33 expressed with a C-terminal hexahistidine tag (cynomolgus monkey); assay: BLI; captured MfIL-33-6His pre-complexed with mAb-1 H4H9665P
cynomolgus monkey IL-33 expressed with a C-terminal hexahistidine tag (cynomolgus monkey), sequence (chain, as listed by the source limits assumed): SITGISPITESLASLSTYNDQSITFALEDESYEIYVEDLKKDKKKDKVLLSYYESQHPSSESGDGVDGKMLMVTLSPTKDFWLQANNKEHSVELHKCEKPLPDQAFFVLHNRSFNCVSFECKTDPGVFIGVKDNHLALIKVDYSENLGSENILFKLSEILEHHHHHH

[5] = biological target: cynomolgus monkey IL-33 expressed with a C-terminal hexahistidine tag (cynomolgus monkey); assay: BLI; captured MfIL-33-6His pre-complexed with mAb-1 H1M9565N
[6] = biological target: cynomolgus monkey IL-33 expressed with a C-terminal hexahistidine tag (cynomolgus monkey); assay: BLI; mAb-1 on captured MfIL-33-6His
[7] = biological target: cynomolgus monkey IL-33 expressed with a C-terminal hexahistidine tag (cynomolgus monkey); assay: BLI; captured MfIL-33-6His, mAb-1 step with Isotype control
[8] = biological target: cynomolgus monkey IL-33 expressed with a C-terminal hexahistidine tag (cynomolgus monkey); assay: BLI; captured MfIL-33-6His pre-complexed with mAb-1 H4H9667P
[9] = biological target: cynomolgus monkey IL-33 expressed with a C-terminal hexahistidine tag (cynomolgus monkey); assay: BLI; captured MfIL-33-6His pre-complexed with mAb-1 H1M9566N
[10] = biological target: cynomolgus monkey IL-33 expressed with a C-terminal hexahistidine tag (cynomolgus monkey); assay: BLI; captured MfIL-33-6His pre-complexed with mAb-1 H4H9640P
[11] = biological target: cynomolgus monkey IL-33 expressed with a C-terminal hexahistidine tag (cynomolgus monkey); assay: BLI; captured MfIL-33-6His, mAb-1 step with Buffer
[12] = biological target: cynomolgus monkey IL-33 expressed with a C-terminal hexahistidine tag (cynomolgus monkey); assay: BLI; captured MfIL-33-6His pre-complexed with mAb-1 H4H9664P
[13] = biological target: cynomolgus monkey IL-33 expressed with a C-terminal hexahistidine tag (cynomolgus monkey); assay: BLI; captured MfIL-33-6His pre-complexed with mAb-1 H1M9559N
[14] = biological target: human IL-33 (R&D Systems, #3625-IL-010/CF) (human) (UniProt O95760); assay: BLI; hIL-33 pre-mixed with mAb-2 H1M9559N

human IL-33 (R&D Systems, #3625-IL-010/CF) (human), sequence (O95760 112-270 limits assumed): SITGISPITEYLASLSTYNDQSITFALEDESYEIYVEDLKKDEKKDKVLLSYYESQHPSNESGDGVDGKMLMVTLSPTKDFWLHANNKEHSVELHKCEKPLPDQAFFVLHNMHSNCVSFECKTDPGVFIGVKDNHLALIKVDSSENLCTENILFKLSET

mAb-1 Binding to the Pre-complex of mAb-2 & hIL-33 [1]: 0.01 nm
mAb-1 Binding to the Pre-complex of mAb-2 & hIL-33 [2]: 0.01 nm
mAb-1 Binding to the Pre-complex of mAb-2 & hIL-33 [3]: 0.01 nm
Substance: Isotype control 1 (antibody)

mAb-2 Binding to the Pre-complex of mAb-1 & MfIL-33-6xHis [4]: 0.03 nm
mAb-2 Binding to the Pre-complex of mAb-1 & MfIL-33-6xHis [5]: 0.04 nm
mAb-1 Binding (nm) [6]: 0.01 nm
mAb-2 Binding to the Pre-complex of mAb-1 & MfIL-33-6xHis [7]: 0.01 nm
mAb-2 Binding to the Pre-complex of mAb-1 & MfIL-33-6xHis [8]: 0.03 nm
mAb-2 Binding to the Pre-complex of mAb-1 & MfIL-33-6xHis [9]: 0.04 nm
mAb-2 Binding to the Pre-complex of mAb-1 & MfIL-33-6xHis [10]: 0.02 nm
mAb-2 Binding to the Pre-complex of mAb-1 & MfIL-33-6xHis [11]: 0.03 nm
mAb-2 Binding to the Pre-complex of mAb-1 & MfIL-33-6xHis [12]: 0.02 nm
mAb-2 Binding to the Pre-complex of mAb-1 & MfIL-33-6xHis [13]: 0.01 nm
Substance: isotype control antibody

mAb-1 Binding to the Pre-complex of mAb-2 & hIL-33 [14]: 0.02 nm
Substance: Isotype control 2 (antibody)

Source: patent US20160362487A1
